Measured values reported in the supplement of paper PMC7125110.
± gives the standard error. For some of these results: Variants at the floor of the assay were thinned out.

B1: glmS ribozyme (parent)
chain: AUAAAAGCGCCAGAACUACAGAAAUGUAGUUGACGAGGAGGAGGUUUAUCGAAUUUUCGGCGGAUGCCUCCAAA

Experiments:
Conditions in all cases: with glucosamine-6-phosphate
glucosamine-6-phosphate [1] = variants of: B1; experiment: kcat; higher = faster cleavage; RNA array
How it was run: (§1)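 Glucosamine-6-phosphate, from 40 μM to 10 mM in HEPES/KCl/Mg(OAc)2 buffer, was flowed over sequenced MiSeq chips carrying barcoded ribozyme variants transcribed in situ by E. coli RNA polymerase. A hybridised Cy3 probe tracked the variants at 37 °C as tiles were imaged over ~14 h. kobs, kcat and KM were obtained by fitting normalised per-tile medians to exponential decays and then applying weighted Michaelis–Menten fits across concentrations.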

glucosamine-6-phosphate [2] = variants of: B1; experiment: KM; higher = weaker cofactor use; RNA array
How it was run: as §1

glucosamine-6-phosphate [3] = variants of: B1; experiment: self-cleavage kobs at 40 uM GlcN6P; higher = faster cleavage; RNA array
How it was run: as §1

glucosamine-6-phosphate [4] = variants of: B1; experiment: self-cleavage kobs at 160 uM GlcN6P; higher = faster cleavage; RNA array
How it was run: as §1

glucosamine-6-phosphate [5] = variants of: B1; experiment: self-cleavage kobs at 640 uM GlcN6P; higher = faster cleavage; RNA array
How it was run: as §1

glucosamine-6-phosphate [6] = variants of: B1; experiment: self-cleavage kobs at 10000 uM GlcN6P; higher = faster cleavage; RNA array
How it was run: as §1

glucosamine-6-phosphate [7] = variants of: B1; experiment: self-cleavage kobs at 2500 uM GlcN6P; higher = faster cleavage; RNA array
How it was run: as §1

Row | Variant | kcat (glucosamine-6-phosphate [1]) | KM (glucosamine-6-phosphate [2]) | self-cleavage kobs at 40 uM GlcN6P (glucosamine-6-phosphate [3]) | self-cleavage kobs at 160 uM GlcN6P (glucosamine-6-phosphate [4]) | self-cleavage kobs at 640 uM GlcN6P (glucosamine-6-phosphate [5]) | self-cleavage kobs at 10000 uM GlcN6P (glucosamine-6-phosphate [6]) | self-cleavage kobs at 2500 uM GlcN6P (glucosamine-6-phosphate [7])
1 | AUAAAAGCGCGAGAACUACAGAAAUGUAGUUGACGAGGAGGAAGUUUAUCGAAUUUUCGGCGGAUGCCUCCAAA [C11G G43A] | < 1e-05 s⁻¹ | 525 ± 190 µM | < 1e-05 s⁻¹ | < 1e-05 s⁻¹ | < 1e-05 s⁻¹ | < 1e-05 s⁻¹ | 
2 | AUAAAAGCGCCAGAACUACAGAAAUGUAGUUGACGAGGAGGAGGUUUAUCGAAUUUUCGACGGGUGCCUCCAAA [G60A A64G] | 2.24e-05 ± 4.8e-07 s⁻¹ | 1390 ± 160 µM |  |  |  |  | 
3 | AUAAAAGCGCCAGAACUACAGAAAUGUAGUUGACGAGGAGGAGGUUUAUCGAAUUUUCGGCGGAAAGCUCUAAA [U65A G66A C67G C71U] | 8.39e-05 ± 1.9e-05 s⁻¹ |  |  |  |  | 6.69e-05 ± 1.9e-05 s⁻¹ | 8.49e-05 ± 2.1e-05 s⁻¹
4 | AUAAAAGCGCCAGAACUACAGAAAUGUAGUUGACGAGGAGGAGGUUUAUUGAAUUUUCGGCGGAUGCAUCUAAA [C50U C68A C71U] | 2.67e-05 ± 9.8e-06 s⁻¹ |  |  |  |  |  | 
5 | AUAAAAGCGCCAGCACUACAGAAAUGUAGUUGACGAGGAGGAGGUUGAUCGAAUUUUCGGCGGAUGCCUCCAAA [A14C U47G] | 0.00101 ± 0.00014 s⁻¹ | 2500 ± 550 µM | 2.31e-05 ± 1.1e-05 s⁻¹ | 6.35e-05 ± 1.2e-05 s⁻¹ | 0.000208 ± 3e-05 s⁻¹ | 0.000874 ± 0.00012 s⁻¹ | 0.000422 ± 8.2e-05 s⁻¹
6 | AUAAAAGCGCCAGAACUACAGAAAUGUAGAUGACGAGGAGGAGGUUUAUCGAAUUUUCGGCGGAUGCCUGCAAA [U30A C70G] | 8.36e-05 ± 9.7e-06 s⁻¹ |  |  | 6.81e-05 ± 1.8e-05 s⁻¹ | 6.45e-05 ± 1.5e-05 s⁻¹ | 8.03e-05 ± 1.3e-05 s⁻¹ | 0.000108 ± 2.6e-05 s⁻¹
7 | AUAAAAGCGCCAGAACUACAGAAAUGUAGUUGACGAGGAGGAGGUUUAUCGUAUUUUCGGCGGAUGCCACCAAA [A52U U69A] | 5.73e-05 ± 1.5e-05 s⁻¹ |  |  |  | 4.77e-05 ± 1.1e-05 s⁻¹ | 3.63e-05 ± 1.2e-05 s⁻¹ | 7.38e-05 ± 1.2e-05 s⁻¹
8 | AUAAAAGCGCCAGAACUACAGAAAUGUAGUUGACGAGGAUGAGGUUUAGCGAAUUUUCGGCGGAUGCCUCGAAA [G40U U49G C71G] | 0.000114 ± 2.6e-05 s⁻¹ |  |  |  |  | 9.53e-05 ± 1.8e-05 s⁻¹ | 8.01e-05 ± 2.8e-05 s⁻¹
9 | AUAAAGGCGCCAGAACUACAGAAAUGUAGUUGACGAGGAGGAGGAUUAUCGAAUUUUCGGCGGAUGCCUCCAAA [A6G U45A] | 0.000591 ± 0.00015 s⁻¹ |  |  |  |  | 0.000455 ± 8.7e-05 s⁻¹ | 0.000454 ± 0.00011 s⁻¹
10 | AUAAAAGCGCCAGAACUACAGAAAUGUAGUUGACGAGGAGGAGGUUUUUCGAAUAUUCGGCGGAUGCCUCCAAA [A48U U55A] | 0.000475 ± 0.0001 s⁻¹ | 1310 ± 530 µM |  | 4.63e-05 ± 1.3e-05 s⁻¹ | 0.000183 ± 2.7e-05 s⁻¹ | 0.000532 ± 0.0001 s⁻¹ | 0.000269 ± 3.9e-05 s⁻¹
